Measured values: PMC8615399, “Novel Structures of Type 1 Glyceraldehyde-3-phosphate Dehydrogenase from Escherichia coli Provide New Insights into the Mechanism of Generation of 1,3-Bisphosphoglyceric Acid” (Biomolecules, 2021)

Target: the molecule itself
Experiment: crystal structure; hanging-drop vapor diffusion at 20 °C, protein 30 mg/mL; space group P4(1)2(1)2; complexes with NAD and phosphate, G3P or BPG; four subunits (O, P, Q, R) in each structure

Protein | stoichiometry N
glyceraldehyde-3-phosphate dehydrogenase type 1 from Escherichia coli, wild type (enzyme, UniProt P0A9B2 1-331, looked up, glyceraldehyde-3-phosphate dehydrogenase type 1 (EcGAPDH1), Escherichia coli; EC 1.2.1.12; also called EcGAPDH1; WT; source: purified as previously described [24]) MTIKVGINGFGRIGRIVFRAAQKRSDIEIVAINDLLDADYMAYMLKYDSTHGRFDGTVEVKDGHLIVNGKKIRVTAERDPANLKWDEVGVDVVAEATGLFLTDETARKHITAGAKKVVMTGPSKDNTPMFVKGANFDKYAGQDIVSNASCTTNCLAPLAKVINDNFGIIEGLMTTVHATTATQKTVDGPSHKDWRGGRGASQNIIPSSTGAAKAVGKVLPELNGKLTGMAFRVPTPNVSVVDLTVRLEKAATYEQIKAAVKAAAEGEMKGVLGYTEDDVVSTDFNGEVCTSVFDAKAGIALNDNFVKLVSWYDNETGYSNKVLDLIAHISK | 4
EcGAPDH1 double mutant C150A+H177A (enzyme, Escherichia coli, UniProt P0A9B2 1-331, looked up, glyceraldehyde-3-phosphate dehydrogenase type 1 (EcGAPDH1), Escherichia coli; source: purified (Ni-NTA, size-exclusion chromatography)) MTIKVGINGFGRIGRIVFRAAQKRSDIEIVAINDLLDADYMAYMLKYDSTHGRFDGTVEVKDGHLIVNGKKIRVTAERDPANLKWDEVGVDVVAEATGLFLTDETARKHITAGAKKVVMTGPSKDNTPMFVKGANFDKYAGQDIVSNASATTNCLAPLAKVINDNFGIIEGLMTTVAATTATQKTVDGPSHKDWRGGRGASQNIIPSSTGAAKAVGKVLPELNGKLTGMAFRVPTPNVSVVDLTVRLEKAATYEQIKAAVKAAAEGEMKGVLGYTEDDVVSTDFNGEVCTSVFDAKAGIALNDNFVKLVSWYDNETGYSNKVLDLIAHISK | 4
EcGAPDH1 mutant C150A (enzyme, Escherichia coli, UniProt P0A9B2 1-331, looked up, glyceraldehyde-3-phosphate dehydrogenase type 1 (EcGAPDH1), Escherichia coli; Made from the wild-type vector by overlap extension PCR; source: purified (Ni-NTA, size-exclusion chromatography)) MTIKVGINGFGRIGRIVFRAAQKRSDIEIVAINDLLDADYMAYMLKYDSTHGRFDGTVEVKDGHLIVNGKKIRVTAERDPANLKWDEVGVDVVAEATGLFLTDETARKHITAGAKKVVMTGPSKDNTPMFVKGANFDKYAGQDIVSNASATTNCLAPLAKVINDNFGIIEGLMTTVHATTATQKTVDGPSHKDWRGGRGASQNIIPSSTGAAKAVGKVLPELNGKLTGMAFRVPTPNVSVVDLTVRLEKAATYEQIKAAVKAAAEGEMKGVLGYTEDDVVSTDFNGEVCTSVFDAKAGIALNDNFVKLVSWYDNETGYSNKVLDLIAHISK | 4
EcGAPDH1 mutant H177A (enzyme, Escherichia coli, UniProt P0A9B2 1-331, looked up, glyceraldehyde-3-phosphate dehydrogenase type 1 (EcGAPDH1), Escherichia coli; Made from the wild-type vector by overlap extension PCR; source: purified (Ni-NTA, size-exclusion chromatography)) MTIKVGINGFGRIGRIVFRAAQKRSDIEIVAINDLLDADYMAYMLKYDSTHGRFDGTVEVKDGHLIVNGKKIRVTAERDPANLKWDEVGVDVVAEATGLFLTDETARKHITAGAKKVVMTGPSKDNTPMFVKGANFDKYAGQDIVSNASCTTNCLAPLAKVINDNFGIIEGLMTTVAATTATQKTVDGPSHKDWRGGRGASQNIIPSSTGAAKAVGKVLPELNGKLTGMAFRVPTPNVSVVDLTVRLEKAATYEQIKAAVKAAAEGEMKGVLGYTEDDVVSTDFNGEVCTSVFDAKAGIALNDNFVKLVSWYDNETGYSNKVLDLIAHISK | 4
EcGAPDH1 mutant C150S (enzyme, Escherichia coli, UniProt P0A9B2 1-331, looked up, glyceraldehyde-3-phosphate dehydrogenase type 1 (EcGAPDH1), Escherichia coli; Made from the wild-type vector by overlap extension PCR; source: purified (Ni-NTA, size-exclusion chromatography)) MTIKVGINGFGRIGRIVFRAAQKRSDIEIVAINDLLDADYMAYMLKYDSTHGRFDGTVEVKDGHLIVNGKKIRVTAERDPANLKWDEVGVDVVAEATGLFLTDETARKHITAGAKKVVMTGPSKDNTPMFVKGANFDKYAGQDIVSNASSTTNCLAPLAKVINDNFGIIEGLMTTVHATTATQKTVDGPSHKDWRGGRGASQNIIPSSTGAAKAVGKVLPELNGKLTGMAFRVPTPNVSVVDLTVRLEKAATYEQIKAAVKAAAEGEMKGVLGYTEDDVVSTDFNGEVCTSVFDAKAGIALNDNFVKLVSWYDNETGYSNKVLDLIAHISK | 4
